In patent US20230137562A1, “TAU AGGREGATION INHIBITORS” (priority 2017, published 2023):
Where “and” joins values, the source holds several entries; their conditions need not be identical. Equal values may be shown once. Square brackets hold non-standard residues; d marks the D form. Ends that are not written are not given here. hArg = N=C(N)NCCCC[C@H](N)C(=O)O

Target: T1, Ac-VQIINK-NH2
T1 peptide: Ac-VQIINK-NH2
Assay: cell-based or functional assay

| Binder | IC50 (µM), VQIINK Inhibition (ThT) |
| --- | --- |
| WRIHIRYW | 3.17 µM |
| HRIRIRW | 9.07 µM |
| KWWIRIRYW | 1.8 µM |
| IWIRYW | 5.43 µM |
| RIWLWYR | 4.27 µM and 5.47 µM |
| WRIRIAW | 6 µM |
| WRIWIRW | 2.73 µM |
| WIRYWIRW | 1.78 µM |
| WRIRIRA | 8.28 µM |
| WIRLYWRW | 1.86 µM |
| RIRIFIW | 1.57 µM |
| RIRIRWW | 10.2 µM |
| RWWIRIRYW | 2.76 µM |
| FRIKLRW | 2.38 µM |
| RIWIRIW | 3.17 µM |
| LRIWIRYL | 1.74 µM |
| WYRIWIRW | 2.02 µM and 3.69 µM |
| FRIRIHHW | 1.08 µM |
| IWIRYWRW | 2.15 µM |
| WRIWIRYR | 3.33 µM |

| Binder | IC50 (µM), VQIINK Inhibition (ThT) |
| --- | --- |
| WRIRIRH | 11.6 µM |
| WRIWIR | 11.8 µM |
| IRWRIRW | 9.77 µM |
| WKVQVRLW | 1.35 µM |
| RIHIFFW | 1.95 µM |
| WYRLRIRW | 2.36 µM |
| ARIWIRYW | 3.14 µM |
| IRLWVW | 1.63 µM |
| RRIRIRW | 4.29 µM |
| RIWIRYW | 4.87 µM |
| ERIWIRYW | 6.19 µM |
| WRIWIRLW | 3.97 µM |
| WIRIRYW | 6.02 µM |
| WRIHIRW | 1.47 µM |
| KIRLYWW | 2.86 µM |
| RIRLWIW | 4.63 µM |
| WKIHIWWR | 2.01 µM |
| LKIHIRHW | 3.05 µM |
| RIWIRVW | 2.14 µM |
| ARIRIRW | 2.72 µM |

| Binder | IC50 (µM), VQIINK Inhibition (ThT) |
| --- | --- |
| WIRYWWRI | 2.8 µM |
| IRIRWRW | 4.86 µM |
| WRIRIWYW | 2.43 µM |
| RIRIWVW | 2.3 µM |
| W[hArg]I[hArg]L[hArg]W [W(hR)I(hR)L(hR)W] | 2.52 µM |
| RIRIAIW | 1.8 µM |
| IWIRYWWR | 2.01 µM |
| WRIRLRW | 4.04 µM |
| IRIWIW | 2.94 µM |
| RIRVWIF | 2.8 µM |
| WRIRIRR | 34.1 µM |
| FRIRIKHY | 3.61 µM |
| WRARIRW | 5.77 µM |
| FRIWIRYF | 4.64 µM |
| RIALYWW | 2.39 µM |
| WRIRIRW | 2.96 µM |
| WRIWIREW | 3.96 µM |
| WRIRLYWR | 2.12 µM |
| WRIRARW | 4.07 µM |

Each binder was assayed against His-Tau40P301L Tau (UniProt P10636-8 1-441) (assay: cell-based or functional assay).
Chain of His-Tau40P301L Tau (P10636 other isoform, or with tags, fused parts or gaps limits assumed): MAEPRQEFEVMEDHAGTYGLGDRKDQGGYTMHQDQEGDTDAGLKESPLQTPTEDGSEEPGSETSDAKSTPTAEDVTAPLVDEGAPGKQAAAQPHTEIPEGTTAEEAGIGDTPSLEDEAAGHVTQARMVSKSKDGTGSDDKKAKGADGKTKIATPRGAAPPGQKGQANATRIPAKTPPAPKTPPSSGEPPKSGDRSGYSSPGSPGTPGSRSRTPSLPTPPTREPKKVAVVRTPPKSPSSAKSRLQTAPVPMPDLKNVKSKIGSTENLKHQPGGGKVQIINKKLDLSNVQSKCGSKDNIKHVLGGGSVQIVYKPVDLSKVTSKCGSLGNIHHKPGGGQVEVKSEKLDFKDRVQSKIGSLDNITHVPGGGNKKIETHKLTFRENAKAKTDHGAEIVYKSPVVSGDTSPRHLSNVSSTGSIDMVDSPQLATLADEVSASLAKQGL

| Binder | IC50 (µM), Tau40 assay (ThT) |
| --- | --- |
| WRIHIRYW | 3.76 µM |
| HRIRIRW | 3.28 µM |
| KWWIRIRYW | 4.62 µM and 7.02 µM |
| IWIRYW | 4.05 µM |
| RIWLWYR | 2.73 µM |
| WRIRIAW | 4.72 µM |
| WRIWIRW | 2.98 µM and 2.1 µM and 2.11 µM |
| WIRYWIRW | 2.42 µM |
| WRIRIRA | 8.31 µM |
| WIRLYWRW | 2.42 µM and 2.38 µM |
| RIRIFIW | 3.94 µM |
| RIRIRWW | 4.57 µM |
| RWWIRIRYW | 2.54 µM |
| FRIKLRW | 2.6 µM |
| RIWIRIW | 6.47 µM |
| LRIWIRYL | 2.66 µM |
| WYRIWIRW | 0.96 µM and 1 µM and 1.73 µM |
| FRIRIHHW | 3.2 µM |
| IWIRYWRW | 2.73 µM |
| WRIWIRYR | 2.64 µM |

| Binder | IC50 (µM), Tau40 assay (ThT) |
| --- | --- |
| WRIRIRH | 4.44 µM |
| WRIWIR | 7.22 µM |
| IRWRIRW | 2.82 µM |
| WKVQVRLW | 2.4 µM and 2.31 µM |
| RIHIFFW | 4.4 µM |
| WYRLRIRW | 0.86 µM and 0.97 µM |
| ARIWIRYW | 4.08 µM |
| IRLWVW | 8.77 µM |
| RRIRIRW | 2.88 µM |
| RIWIRYW | 2.42 µM |
| ERIWIRYW | 5.33 µM |
| WRIWIRLW | 7.32 µM |
| WIRIRYW | 2.6 µM |
| WRIHIRW | 3.09 µM |
| KIRLYWW | 5.73 µM |
| RIRLWIW | 7.07 µM |
| WKIHIWWR | 5.75 µM |
| LKIHIRHW | 3.79 µM |
| RIWIRVW | 6.36 µM |
| ARIRIRW | 4.19 µM |

| Binder | IC50 (µM), Tau40 assay (ThT) |
| --- | --- |
| WIRYWWRI | 3.69 µM |
| IRIRWRW | 2.78 µM |
| WRIRIWYW | 0.85 µM |
| RIRIWVW | 7.07 µM |
| W[hArg]I[hArg]L[hArg]W [W(hR)I(hR)L(hR)W] | 3.39 µM |
| RIRIAIW | 4.14 µM |
| IWIRYWWR | 2.44 µM |
| WRIRLRW | 0.9 µM and 0.97 µM |
| IRIWIW | 6.77 µM |
| RIRVWIF | 6.53 µM and 6.89 µM |
| WRIRIRR | 3.15 µM |
| FRIRIKHY | 9.45 µM |
| WRARIRW | 3.7 µM |
| FRIWIRYF | 4 µM |
| RIALYWW | 3.54 µM |
| WRIRIRW | 0.9 µM and 0.84 µM |
| WRIWIREW | 2.76 µM |
| WRIRLYWR | 3.1 µM |
| WRIRARW | 8.01 µM |
